Results published in PMC9487752, “Novel mycoplasma nucleomodulin MbovP475 decreased cell viability by regulating expression of CRYAB and MCF2L2”.

Assays:
Assay in all cases: Southwestern blot; no change vs WT; EMSA: LightShift kit binding buffer, 20 min, room temperature, 5% native PAGE; Southwestern: 2 ug protein on nitrocellulose renatured in TNED buffer, 20 pmol biotin DNA, 12 h, room temperature; SPR: Biacore, NTA chip (~100 RU protein), buffer not given
Settings in all cases: protein: recombinant; tags: His (pET-30a); label: 5'-C6-biotin (both oligos by primer name); blunt
MbovP475∆DB3 = molecular target: T1, MbovP475∆DB3 (Mycoplasma bovis HB0801, UniProt A0A454AQS7 1-338)
T1 sequence: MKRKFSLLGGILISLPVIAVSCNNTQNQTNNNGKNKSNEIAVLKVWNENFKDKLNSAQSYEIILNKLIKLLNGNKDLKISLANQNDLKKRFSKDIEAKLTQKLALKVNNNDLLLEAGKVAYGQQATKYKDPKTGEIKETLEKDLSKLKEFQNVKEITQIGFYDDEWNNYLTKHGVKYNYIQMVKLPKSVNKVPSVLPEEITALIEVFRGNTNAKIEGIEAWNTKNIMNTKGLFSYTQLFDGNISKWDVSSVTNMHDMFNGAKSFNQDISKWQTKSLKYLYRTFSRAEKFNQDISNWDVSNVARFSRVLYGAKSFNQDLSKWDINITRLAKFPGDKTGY

MbovP475∆DB2 = molecular target: T2, MbovP475∆DB2 (Mycoplasma bovis HB0801, UniProt A0A454AQS7 1-298+333-368, internal_change)
T2 sequence: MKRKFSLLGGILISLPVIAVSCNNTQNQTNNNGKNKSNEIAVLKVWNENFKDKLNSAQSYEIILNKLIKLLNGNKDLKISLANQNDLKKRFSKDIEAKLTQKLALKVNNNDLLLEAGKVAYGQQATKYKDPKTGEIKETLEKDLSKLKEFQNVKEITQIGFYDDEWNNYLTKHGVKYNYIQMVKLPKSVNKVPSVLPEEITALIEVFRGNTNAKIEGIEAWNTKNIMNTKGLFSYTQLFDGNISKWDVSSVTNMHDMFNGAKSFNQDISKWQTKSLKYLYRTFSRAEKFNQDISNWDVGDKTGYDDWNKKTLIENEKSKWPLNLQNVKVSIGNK

rMbovP475-265NQ266 = molecular target: T3, rMbovP475-265NQ266 (Mycoplasma bovis HB0801, UniProt A0A454AQS7 1-368, N265A;Q266A)
T3 sequence: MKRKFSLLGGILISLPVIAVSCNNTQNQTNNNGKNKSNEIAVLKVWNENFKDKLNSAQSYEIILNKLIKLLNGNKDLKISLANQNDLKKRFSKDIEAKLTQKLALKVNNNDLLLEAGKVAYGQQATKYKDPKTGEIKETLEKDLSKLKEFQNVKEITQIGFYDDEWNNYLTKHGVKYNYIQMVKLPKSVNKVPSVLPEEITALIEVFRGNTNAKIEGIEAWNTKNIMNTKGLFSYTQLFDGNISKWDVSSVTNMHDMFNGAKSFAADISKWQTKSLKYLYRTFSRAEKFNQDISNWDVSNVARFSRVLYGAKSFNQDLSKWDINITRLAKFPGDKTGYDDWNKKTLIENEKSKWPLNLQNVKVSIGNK

Measured: binding result

B1: MCF2L2 promoter (+53 to +112) (dsDNA)
DNA 1: CAACTAACACTTTACGGGAGTGGGCACATCATTCCTGAATAAGGACACGCGCGTGCGCAC
DNA 2: GTGCGCACGCGCGTGTCCTTATTCAGGAATGATGTGCCCACTCCCGTAAAGTGTTAGTTG
binds: all assays above

B2: CRYAB promoter (+108 to +167) (dsDNA)
DNA 1: TCTCTTCCCAGCTTCTACTTCCCTGAGCCCCTTCTACCTTCGGCCGCCCTCATTTCTGCG
DNA 2: CGCAGAAATGAGGGCGGCCGAAGGTAGAAGGGGCTCAGGGAAGTAGAAGCTGGGAAGAGA
binds: all assays above
